Consider one molecule from CN114316057A (SHENZHEN PEOPLE HOSPITAL, dated 2022).

For assay [1], the target named is T1, TOM20-Human 胞质结构域蛋白(25-145) (human, UniProt Q15388 25-145).
T1 construct: range 25-145; A purification tag (Ni column) is implied but not described; also called TOM20胞质结构域
T1 sequence (looked up): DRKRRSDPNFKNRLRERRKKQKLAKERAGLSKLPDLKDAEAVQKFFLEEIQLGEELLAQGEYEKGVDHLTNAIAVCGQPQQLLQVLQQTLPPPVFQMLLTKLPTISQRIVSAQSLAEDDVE
Kind of assay: SPR (Biacore), antigen immobilised on chip, nanobody as analyte. A general note: In SPR one partner is held on a chip, and binding of the other changes the refractive index at the surface.

The target in a further assay is T2, TOM20-Mouse 胞质结构域 (mouse, UniProt Q9DCC8 25-145).
T2 construct: domain: 胞质结构域; also called TOM20(鼠)胞质结构域
T2 sequence (looked up): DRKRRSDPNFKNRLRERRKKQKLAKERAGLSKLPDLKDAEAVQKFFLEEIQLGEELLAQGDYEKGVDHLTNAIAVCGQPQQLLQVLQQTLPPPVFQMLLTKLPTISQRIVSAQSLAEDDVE
Described as above.

For assay [2], the target named is T1, TOM20-Human 胞质结构域蛋白(25-145). As to the kind of experiment: phage clone ELISA, crude phage nanobody extract on coated TOM20 against BSA control. In general terms: An ELISA detects its analyte on a solid surface through an enzyme-linked reagent.

B1: P2B7号纳米抗体 (VHH)
VHH: AVQLVESGGGLVQAGGSLRLSCVASGSTFSNFVMGWYRQAPGKQRVLVATISSGGSTNYADSVKGRFTISRDNTKNTVYLQMNSLKPEDTSVYYCNARRGSVIVPTLAYDYWGQGTQVTVSS
notes: Alpaca naive-library nanobody expressed in E. coli with an HA tag for detection and purified on Ni resin; also called P2B7纳米抗体; TOM20纳米抗体; not shown: fused HA tag and vector-derived His tag (PET-14B or PET28a-sumo)
What is called Kd is a measure of binding affinity in units of concentration. For B1, the results for the Kd (in assay [1]; with TOM20-Mouse 胞质结构域) were 44.8 nM and 413 nM, respectively. For the same molecule, the TOM20/BSA ratio in assay [2] is approximately 3 fold.
